This is an account of results in paper PMC11933327, “Asymmetric activation of dimeric ATM/Tel1 kinase” (Cell Discovery, 2025).

As usually defined, the stoichiometry N is a count of units in the complex or per binding partner. For orientation: Kd means the constant that tells how readily two partners part at equilibrium. Read a low Kd as a tighter complex.

Where only a bound is given, the exact number is not on record here.

Experiment [1] concerns the target ATM/Tel1, active state (endogenously activated by DNA damage) (Schizosaccharomyces pombe) (UniProt O74630). Description: mass photometry; active ATM/Tel1 incubated with over-saturated full-length CHK2, complex fractionated by GraFix.
The target is the same in experiment [2]. Description: cryo-EM structure; active wild-type ATM/Tel1 incubated with the CHK2 63-74 peptide and AMP-PNP in vitro; Structure 2, 3.6 Å.
Experiment [3] has as its target ATM/Tel1, basal state (Schizosaccharomyces pombe) (UniProt O74630). Description: cryo-EM structure; basal state; resolution improved from 7.8 Å to 4.3 Å with a new algorithm.
The test system of another experiment is active ATM/Tel1 dimer. Description: Mass photometry of GraFix-assembled ATM/Tel1-CHK2 complex. The class given is binding, Schizosaccharomyces pombe. Particulars: over-saturated full-length CHK2, AMP-PNP, mass photometry 25 °C, 20 nM final protein. Here is the method:
to SDS- PAGE and analyzed by Western blot (WB) using pan- acetylated -Lysine (Rabbit monoclonal, Cat# 9441S, Cell Signaling Technology). and phospho-ATM/ATR substrate (pSQ/pTQ motif, Rabbit monoclonal, Cat# 6966, Cell Signaling Technology) antibodies.
Surface plasmon resonance
Interaction analysis between ATM/Tel1 in different states and CHK2 was performed at 20 °C using a Biacore 8K (GE Healthcare) by immobilizing CHK2 onto a CM5 sensor chip. A twofold dilution series of […] was injected at a flow rate of 30 µl min –1 in PBS running buffer. All conditions were tested for at least five different antibody concentrations, and the blank channel of the chip served as the negative control. After each cycle, the sensor was regenerated with 10 mM NaOH.
Data processing and kinetic analyses were performed using Biacore 8K Evaluation Software […]
To determine the stoichiometry and mass distribution between active ATM/Tel1 and its substrate CHK2, standard mass photometry landing assays were performed at 25 °C using a TwoMP instrument (Refeyn) mounted on an active anti-vibration platform. […] Bovine serum albumin standards (Beyotime) were measured on the same day to calibrate extracted particle contrast relative to mass. […]

For experiment [4], the target named is T1, ATM/Tel1, basal state (Schizosaccharomyces pombe, UniProt O74630 1-2812).
T1 construct: ATM/Tel1 kinase of Schizosaccharomyces pombe, basal state, symmetric homodimer; also called basal ATM/Tel1; basal-state ATM/Tel1; source: purified
Put plainly: SPR; CHK2 (full length or peptide) at varied concentrations on basal or active ATM/Tel1. Conditions: both partners purified. Background: Surface plasmon resonance follows binding to a sensor surface in real time, without labels.

Experiment [5] deals with ATM/Tel1, active state (endogenously activated by DNA damage) (Schizosaccharomyces pombe, UniProt O74630 1-2812, autophosphorylation and acetylation (sites not given)). Description: SPR.
Experiment [6] has as its target ATM/Tel1, basal state (Schizosaccharomyces pombe, UniProt O74630 1-2812). Description: SPR.

Chain of ATM/Tel1, active state (endogenously activated by DNA damage) (O74630 whole entry): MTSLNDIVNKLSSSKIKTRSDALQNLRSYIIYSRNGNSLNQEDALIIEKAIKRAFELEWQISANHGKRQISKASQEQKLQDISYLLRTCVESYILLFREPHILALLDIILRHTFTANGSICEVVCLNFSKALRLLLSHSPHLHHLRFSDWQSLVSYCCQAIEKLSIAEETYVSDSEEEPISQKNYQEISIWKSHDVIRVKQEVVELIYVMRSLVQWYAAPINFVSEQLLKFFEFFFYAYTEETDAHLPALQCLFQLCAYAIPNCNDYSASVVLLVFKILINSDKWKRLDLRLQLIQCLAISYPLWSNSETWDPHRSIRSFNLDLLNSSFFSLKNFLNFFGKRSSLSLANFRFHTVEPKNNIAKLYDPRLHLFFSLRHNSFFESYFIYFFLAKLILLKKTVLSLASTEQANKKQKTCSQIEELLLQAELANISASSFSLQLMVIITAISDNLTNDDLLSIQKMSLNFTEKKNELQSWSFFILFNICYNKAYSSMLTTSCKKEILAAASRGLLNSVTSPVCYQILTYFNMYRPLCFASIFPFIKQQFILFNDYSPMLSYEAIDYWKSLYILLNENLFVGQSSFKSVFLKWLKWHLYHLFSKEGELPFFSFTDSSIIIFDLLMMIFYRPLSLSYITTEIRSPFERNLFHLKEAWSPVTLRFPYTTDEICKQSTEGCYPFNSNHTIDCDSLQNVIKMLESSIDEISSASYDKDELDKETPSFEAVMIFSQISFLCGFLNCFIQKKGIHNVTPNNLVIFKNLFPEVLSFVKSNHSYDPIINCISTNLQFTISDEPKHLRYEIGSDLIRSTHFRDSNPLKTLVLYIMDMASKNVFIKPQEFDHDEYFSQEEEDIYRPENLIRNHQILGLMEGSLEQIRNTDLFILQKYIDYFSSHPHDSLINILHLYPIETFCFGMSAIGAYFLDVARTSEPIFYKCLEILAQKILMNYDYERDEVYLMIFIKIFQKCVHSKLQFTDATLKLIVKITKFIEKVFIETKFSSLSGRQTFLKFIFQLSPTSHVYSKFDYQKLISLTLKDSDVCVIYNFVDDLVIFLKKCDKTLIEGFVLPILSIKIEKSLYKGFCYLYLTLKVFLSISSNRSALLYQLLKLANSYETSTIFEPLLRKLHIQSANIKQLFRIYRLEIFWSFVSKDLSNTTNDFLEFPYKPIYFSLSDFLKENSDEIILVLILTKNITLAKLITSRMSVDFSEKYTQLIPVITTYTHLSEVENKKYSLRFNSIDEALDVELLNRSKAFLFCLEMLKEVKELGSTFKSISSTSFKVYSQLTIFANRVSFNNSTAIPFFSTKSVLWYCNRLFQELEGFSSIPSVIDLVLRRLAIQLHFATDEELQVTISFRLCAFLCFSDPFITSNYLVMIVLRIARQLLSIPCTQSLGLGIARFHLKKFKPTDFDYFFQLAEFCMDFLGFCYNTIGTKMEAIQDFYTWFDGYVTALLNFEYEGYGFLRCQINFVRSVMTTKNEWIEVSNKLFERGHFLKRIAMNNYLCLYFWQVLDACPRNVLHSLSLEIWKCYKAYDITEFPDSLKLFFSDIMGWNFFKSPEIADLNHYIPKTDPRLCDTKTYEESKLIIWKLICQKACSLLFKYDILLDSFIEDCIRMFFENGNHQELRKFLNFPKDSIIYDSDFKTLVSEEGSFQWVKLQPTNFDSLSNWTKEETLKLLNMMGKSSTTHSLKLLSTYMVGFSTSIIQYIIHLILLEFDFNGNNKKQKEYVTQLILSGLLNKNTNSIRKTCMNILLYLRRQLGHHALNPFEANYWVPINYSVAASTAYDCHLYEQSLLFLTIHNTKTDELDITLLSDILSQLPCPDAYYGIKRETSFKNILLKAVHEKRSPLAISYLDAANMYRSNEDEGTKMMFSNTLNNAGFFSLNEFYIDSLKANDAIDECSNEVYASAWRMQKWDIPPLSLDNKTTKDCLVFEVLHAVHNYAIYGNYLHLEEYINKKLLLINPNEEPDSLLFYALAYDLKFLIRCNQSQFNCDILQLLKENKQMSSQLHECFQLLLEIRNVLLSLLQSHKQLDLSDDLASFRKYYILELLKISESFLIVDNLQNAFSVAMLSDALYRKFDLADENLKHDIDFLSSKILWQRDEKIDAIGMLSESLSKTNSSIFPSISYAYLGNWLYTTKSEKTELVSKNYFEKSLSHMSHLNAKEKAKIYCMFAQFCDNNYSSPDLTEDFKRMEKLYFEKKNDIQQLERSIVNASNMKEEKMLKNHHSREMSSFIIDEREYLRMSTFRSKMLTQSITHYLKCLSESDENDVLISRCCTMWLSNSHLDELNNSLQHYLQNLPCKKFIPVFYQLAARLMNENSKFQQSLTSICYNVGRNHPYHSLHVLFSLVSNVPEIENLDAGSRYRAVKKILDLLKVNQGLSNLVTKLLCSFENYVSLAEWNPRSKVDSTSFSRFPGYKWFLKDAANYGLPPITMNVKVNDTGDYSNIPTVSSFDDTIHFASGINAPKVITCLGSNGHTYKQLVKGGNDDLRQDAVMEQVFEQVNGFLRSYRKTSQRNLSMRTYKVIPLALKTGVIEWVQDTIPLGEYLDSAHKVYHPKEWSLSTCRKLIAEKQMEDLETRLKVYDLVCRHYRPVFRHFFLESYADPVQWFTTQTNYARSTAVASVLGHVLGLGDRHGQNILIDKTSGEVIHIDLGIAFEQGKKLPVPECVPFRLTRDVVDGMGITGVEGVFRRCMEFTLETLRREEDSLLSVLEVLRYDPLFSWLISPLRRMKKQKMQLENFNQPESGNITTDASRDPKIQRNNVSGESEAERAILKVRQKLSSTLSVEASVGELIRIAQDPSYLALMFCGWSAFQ

For the molecule “ATM/Tel1, active state (endogenously activated by DNA damage), O74630 1-2812”, the stoichiometry N in experiment [1] and in experiment [2] was 2 in each case.
In experiment [3], ATM/Tel1, basal state, O74630 1-2812 had a stoichiometry N of 2.
In the case of “full-length CHK2: human full-length CHK2, C-terminal 6× His tag, expressed in E. coli BL21(DE3)”, in the experiment with active ATM/Tel1 dimer, the “CHK2 molecules bound per ATM/Tel1 dimer” value is on record as “only one CHK2 molecule is bound to an ATM/Tel1 dimer”.

B1: CHK2 substrate peptide (CHK2 63-74) (peptide, UniProt O96017 63-74, looked up)
peptide: LETVSTQELYSI
notes: CHK2 residues 63-74; also called CHK2 peptide
As to B1, the “fold reduction of affinity against active ATM/Tel1” value with ATM/Tel1, basal state [4] is above 120 fold. Besides, the dissociation constant (Kd) in experiment [5] came out at 2.37 µM; with ATM/Tel1, basal state [6], 296 µM.
